Our source for the Ub-AMC cleavage activity of Ubp6 with purified base against Ubp6 alone values is paper PMC4560640.

For the experiment, the target named is base subcomplex, heterologously expressed in E. coli (S. cerevisiae) (UniProt P38764).

In turn, “Ubp6, wild type (from UniProt P43593 1-499) (enzyme)” displayed a Ub-AMC cleavage activity of Ubp6 with purified base against Ubp6 alone of 300 fold.
